From patent publication US20230212533

Experiments:
[1] = molecular target: Bovine mitochondrial cytochrome c, P62894
[2] = molecular target: T1, CycN cytochrome c protein (Pseudomonas putida S16)
T1 chain: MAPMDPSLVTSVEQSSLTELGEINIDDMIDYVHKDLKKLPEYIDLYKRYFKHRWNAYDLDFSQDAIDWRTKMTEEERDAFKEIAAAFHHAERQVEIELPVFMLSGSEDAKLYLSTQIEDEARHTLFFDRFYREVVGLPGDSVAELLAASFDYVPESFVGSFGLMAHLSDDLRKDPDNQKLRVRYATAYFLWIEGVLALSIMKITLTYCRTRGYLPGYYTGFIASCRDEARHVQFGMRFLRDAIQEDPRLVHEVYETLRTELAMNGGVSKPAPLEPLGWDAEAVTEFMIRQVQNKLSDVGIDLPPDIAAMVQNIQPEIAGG

Chain of Bovine mitochondrial cytochrome c, P62894 (P62894 2-105): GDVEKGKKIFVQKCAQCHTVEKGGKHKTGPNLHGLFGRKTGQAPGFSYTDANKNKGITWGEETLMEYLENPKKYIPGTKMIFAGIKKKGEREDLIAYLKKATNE

B1: NicA2 nicotine oxidoreductase (wild-type, Pseudomonas putida S16) (protein)
chain: TQKTNRASTVKGGFDYDVVVVGGGFAGATAARECGLQGYRTLLLEARSRLGGRTFTSRFAGQEIEFGGAWVHWLQPHVWAEMQRYGLGVVEDPLTNLDKTLIMYNDGSVESISPDEFGKNIRIAFEKLCHDAWEVFPRPHEPMFTERARELDKSSVLDRIKTLGLSRLQQAQINSYMALYAGETTDKFGLPGVLKLFACGGWNYDAFMDTETHYRIQGGTIGLINAMLTDSGAEVRMSVPVTAVEQVNGGVKIKTDDDEIITAGVVVMTVPLNTYKHIGFTPALSKGKQRFIKEGQLSKGAKLYVHVKQNLGRVFAFADEQQPLNWVQTHDYSDELGTILSITIARKETIDVNDRDAVTREVQKMFPGVEVLGTAAYDWTADPFSLGAWAAYGVGQLSRLKDLQAAEGRILFAGAETSNGWHANIDGAVESGLRAGREVKQLLS
[1]
  reduction of bovine cytochrome c, UV-VIS absorbance 250-600 nm for 15 minutes; 6.84 µM bovine cytochrome c with NicA2 and nicotine: The bovine mitochondrial cytochrome c was not efficiently reduced by this system
[2]
  kobs for the second phase, stopped-flow at 542 nm: invariant at ˜5.5 s^-1 independent of the CycNox concentration used
  reduction of CycN heme, UV-VIS absorbance (Soret band, 410 and 550 nm); 3.75 µM CycN, 30 nM NicA2, 100 µM nicotine: a characteristic increase and shift of Soret banding pattern was observed, which indicated that CycN had become reduced
  time to complete electron transfer, anaerobic stopped-flow; 15 µM NicA2-Flred mixed with excess CycNox: Electron transfer between NicA2-Flred and CycNox appeared to be very rapid, being complete in under one second
